Test results as given in the nanobody polyreactivity screen of Harvey et al. (2022).

Test: yeast display, Sf9 membrane polyspecificity reagent, FACS + sequencing; frameworks hold sequencing errors
In short: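 A synthetic nanobody library was expressed on Saccharomyces cerevisiae BJ5465 by galactose induction for 36–48 hours. The library was stained for 1 hour at 4 °C with 10% biotinylated, detergent-solubilized Sf9 membrane reagent and enriched with streptavidin microbeads before FACS. Low and high (top ~1%) gates were set on anti-HA fluorescence for expression and streptavidin fluorescence for reagent binding, and each polyreactivity label reflects the gate of origin.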

Sequence | polyreactivity (PSR sort gate)
QVQLVESGGGLVQAGGSLRLSCAASGSTFNIYAMGWYRQAPGKERELVAAISGNGDRTYYADSVKGRFTISRDNAKNTVYLQMNSLKPEDTAVYYCAAKYYGWGQGTQVTVSS | high polyreactivity
QDQHVESGGCLVQAGGSLRLSCAASGFTFYANAMGWYRQAPGKERELVAAISRGVSTTYADSVKGRFTISRDNSKNTVYLQMNSLTPEDTAVYYCAADGKVIAQGYDYWGQGTQVTVST | low polyreactivity
QVQLVESGGGLVQAGGSLRLSCAASGRTFPAYAMGWYRQAPGKERELVAGISKRGGSTYYADSVKGRFTISRDNAKNTVYFQMNSLKPEDTAVYYCNAEGHLFRYDSWGQGTQVTVSS | high polyreactivity
QVQRVESGGGLVQAGGSLRLSCAASGSIFRTYAMRWYRQAPGTERELVAAITSRGSSTYYADSVKGRFTISRDNAKNTVYLQMNSLKPEDTAVYSCPADYRTSYKGVLFSMYYWGQGTQVTVSS | high polyreactivity
QVQLVESGGGLVQAGGSLRLSCAASGRIFIYYAMGWYRQAPGKERELVAAISWGGGRTYYADSVKGRFTLSRYNAKNTVYLQMNSLKPEDTAVYYCAAGVYTGQNEYDYWGQGTQVTVSS | low polyreactivity
QVQLVESGGGLVQAGGSLRLSCAASGSIFASNAMGWYRQAPGTERELVAAIDTSGGSTYYADSVKGRFTISRDNAKNTVYLQMNSLKPEDTAVYYCNTDWRDEYYPRYRASKFDYWGQGTQVTVSS | low polyreactivity
QVQLVESGGGLEQAGGSLRLSCAASGRTLPIYAMGWYIQAPGKERELVAAISWSGASTYADSVKGRFTISRDNAKNTVYLQMTSLKPEETAVYYCAAYYVYWYSSYGYGYWGQGTQVTVSS | low polyreactivity
QVQLVESGGGLVQAGGSLRLSCAASGSIFAYYTMGWYRQAAGNERELVAVINASGGGTYYADSVKGRFTISRDNAKNTVYLQMNSLKPEDTAVYYCAATYSPFDFYYWGQGTQVTVSS | low polyreactivity
QVQLVESGGGLVQAGGSLRLSCAASGLTFYAYVMGWYRPAPGNERELVAAISGGGSTYYADSVKGRFTISRDNAKNSVYLEMISLKPEDTAVYYCNAELSLWDLGYDYWVQGTQVTVSS | low polyreactivity
QVQLVESGGGLVQAGGSLRLSCAASGFTFYYYAMGWYRQAPGKERELVAGINSDGNTYYADSVKGRFTISRDNAKNTVYLQMNSLKPEDTAVYYCAARKLWPKNFVRHDYWGQGTQVTVSS | low polyreactivity
QVQLVESGGGLVQAGGSLRLSCAASGFISSYYAMGWYRQAPGKERELVAAITSGGRTYYADSVKGRFTISRDNAKNTDYLQMNSLKPEDTAVYYCGKYSRTNAFDYWGQGTQVTVSS | high polyreactivity
QVQLLESGGGLVQAGGSLRLSCAASGSIINRYAMGLYRQAPGKERELVAAISWRGGSTYYADSVKGRFTISRDNAKNTVYLQMNSLKPEDTAVYYCNKVSYVKSGYWGQGTQVTVSS | high polyreactivity
QVQLVEAGGGLVQSGGSLRLSCAASGSIFNIYAMGWSRQAAGKDRELVAVISSRGGRSYYADSVKGRFTISRDNAKNTVYLQMTSLKPEDTAVYYCAAGYLRQGYRGYDYWGQGTQVTVSS | high polyreactivity
QVQLVESGGGLVNAGGSLRLSCAASGITLVVYGMGWYRQAPGKETELVAAMTSGGRTYYADSVTGRFTISRDNAKNTVYLQMNSLKPEDTAVYYCAADRYFRQYGRYYYWGQGTQVTVSS | high polyreactivity
QFQLVEAGGGLVQAGGSLRLSCAASGSIFTYAMGWYRQAPGKEREFVAAISRSGGRTYYADSVKGRFTMSRDNAKNTVYFQMNSLKPDDTAVYYCAPLLLKDYDYWGQGTQVTVSS | low polyreactivity
QVQLVESGGGLVQAGGILRLSCAASGFTFQNNAMGWYRQAPGKERELVARITRSDGSTYYADSVKGRFTISRDNAKNTVYLQMNSLKPEDNAVYYCAARYGLLGSSRGGYWGQGTQVTVSS | low polyreactivity
QVQLGESGGGLVQAGGSLRLICAASGSIFDQYAMGWSRPAPGKERELVAAIDTSGGSTYYADSVKGRFTISRDNAKYTVYLQMNSLKPEDTAVYYCAARGDGTFYEGYDYWGQGTQVTVSS | low polyreactivity
